These results are taken from PMC13376610, “Nanobody-mediated control of long RSH Rel and RelA catalysis by restriction of their conformational landscape” (Nature Communications, 2026).

One assay deals with T1, RelCt^NTD (Chlorobaculum tepidum, UniProt Q8KC80).
T1 construct: gene relA; N-terminal catalytic region (HD + SYNTH domains), C-terminal regulatory domains removed; N-terminal His-TEV tag cleaved; recombinant, gene from GenScript
T1 sequence (Q8KC80 1-390 limits assumed): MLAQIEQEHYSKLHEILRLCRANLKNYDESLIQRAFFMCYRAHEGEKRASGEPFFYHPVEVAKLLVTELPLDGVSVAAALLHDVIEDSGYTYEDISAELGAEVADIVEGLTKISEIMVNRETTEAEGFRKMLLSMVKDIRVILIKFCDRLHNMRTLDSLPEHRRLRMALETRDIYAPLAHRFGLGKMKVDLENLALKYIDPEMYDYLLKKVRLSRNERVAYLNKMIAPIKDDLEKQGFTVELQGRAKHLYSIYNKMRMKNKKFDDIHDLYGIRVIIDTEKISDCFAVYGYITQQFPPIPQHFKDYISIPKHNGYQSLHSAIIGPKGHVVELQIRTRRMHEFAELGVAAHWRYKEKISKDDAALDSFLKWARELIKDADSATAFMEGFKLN
As to the kind of experiment: ITC. It counts as binding. The conditions noted are these: 15 °C, pH 7.5, 10 mM MgCl2, no nanobody; SYNTH active site; non-hydrolysable ATP analogue; also crystal structure with GDP (2.65 Å).

The target of assay [1] is T2, full-length Rel from Chlorobaculum tepidum (Chlorobaculum tepidum TLS, UniProt Q8KC80).
T2 construct: Rel, bifunctional (p)ppGpp synthetase/hydrolase (long RSH), Chlorobaculum tepidum, full length; PDB 9S6K and 9S6L hold the NTD of this protein; also called RelCt; RelACt (as printed once); source: construct generated by GenScript
In words: ITC; nanobody titrated into the RSH enzyme in the cell; Affinity-ITC, 15 °C, 2 μL injections, stirring 75 r.p.m., triplicate; mean KD ± SD. The conditions noted are these: both partners purified. (Isothermal titration calorimetry measures the heat released or taken up as one component is titrated into another.)

The target in assay [2] is T2, full-length Rel from Chlorobaculum …. As to the kind of experiment: cell-based or functional assay.
Assay [3] deals with T3, RelCt^NTD, N-terminal catalytic region of C. tepidum Rel (Chlorobaculum tepidum TLS).
T3 construct: Rel, Chlorobaculum tepidum, N-terminal catalytic region (HD and SYNTH domains); His-TEV tag removed with TEV protease; source: recombinant, purified (HisTrap, SEC, TEV cleavage, reverse IMAC, SEC); construct generated by GenScript; not shown: His tag, N-terminal, cleaved
T3 chain: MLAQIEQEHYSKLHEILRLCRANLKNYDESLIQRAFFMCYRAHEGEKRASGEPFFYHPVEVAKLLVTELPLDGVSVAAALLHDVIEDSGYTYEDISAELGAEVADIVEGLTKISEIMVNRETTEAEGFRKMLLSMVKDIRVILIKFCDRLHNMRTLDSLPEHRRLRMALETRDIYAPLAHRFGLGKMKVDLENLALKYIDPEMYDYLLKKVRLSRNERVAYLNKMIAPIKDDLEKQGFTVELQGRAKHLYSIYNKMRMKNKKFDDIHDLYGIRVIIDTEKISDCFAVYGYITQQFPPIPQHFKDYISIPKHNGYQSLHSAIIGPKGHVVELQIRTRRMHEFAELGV
In words: HDX-MS; RelCt^NTD alone against its complex with the nanobody, 50 to 70 μM; labelling 0.5, 5 or 60 min at 20 °C in 50 mM HEPES, 500 mM KCl, 500 mM NaCl, 2 mM MgCl2, 1 mM TCEP, 0.002% mellitic acid (pD 7.5); triplicate. The following applies: both partners purified.

For assay [4], the target named is RelCt^R215E (Chlorobaculum tepidum). In words: ITC; nanobody titrated into the RSH enzyme in the cell; Affinity-ITC, 15 °C, 2 μL injections, stirring 75 r.p.m., triplicate; mean KD ± SD.
Another assay concerns the target T4, full-length E. coli RelA (Escherichia coli (K-12 entry), UniProt P0AG20).
T4 construct: RelA, long RSH (p)ppGpp synthetase, Escherichia coli, full length; also called RelAEc; source: construct generated by GenScript
Described as above. The conditions noted are these: both partners purified.

The target of assay [5] is T5, RelCt^NTD, N-terminal catalytic region of C. tepidum Rel (Chlorobaculum tepidum).
T5 chain: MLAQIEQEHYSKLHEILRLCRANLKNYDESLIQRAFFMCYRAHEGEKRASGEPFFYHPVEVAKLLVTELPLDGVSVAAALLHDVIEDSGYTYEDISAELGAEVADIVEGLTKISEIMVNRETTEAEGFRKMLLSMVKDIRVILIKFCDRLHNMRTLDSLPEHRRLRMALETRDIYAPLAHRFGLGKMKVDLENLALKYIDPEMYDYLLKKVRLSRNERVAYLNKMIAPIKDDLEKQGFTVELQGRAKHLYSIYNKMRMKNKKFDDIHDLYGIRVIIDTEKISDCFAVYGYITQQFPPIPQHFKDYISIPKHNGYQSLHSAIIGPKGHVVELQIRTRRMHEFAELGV
As to the kind of experiment: ITC.

Assay [6] addresses T6, RelCt^D283A (Chlorobaculum tepidum).
T6 chain: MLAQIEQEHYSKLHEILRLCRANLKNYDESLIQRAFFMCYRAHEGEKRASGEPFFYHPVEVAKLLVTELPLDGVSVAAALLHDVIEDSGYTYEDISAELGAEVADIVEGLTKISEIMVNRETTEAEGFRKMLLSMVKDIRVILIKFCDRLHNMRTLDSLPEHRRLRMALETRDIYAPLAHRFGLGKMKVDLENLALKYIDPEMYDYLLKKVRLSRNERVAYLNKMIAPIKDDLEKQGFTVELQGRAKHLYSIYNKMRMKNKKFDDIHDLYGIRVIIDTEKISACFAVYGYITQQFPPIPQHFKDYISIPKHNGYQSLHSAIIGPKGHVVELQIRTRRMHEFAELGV
In words: ITC.

Assay [7] addresses T6, RelCt^D283A. In words: ITC.
For another assay, the target named is T7, RelCt^K280A (Chlorobaculum tepidum).
T7 chain: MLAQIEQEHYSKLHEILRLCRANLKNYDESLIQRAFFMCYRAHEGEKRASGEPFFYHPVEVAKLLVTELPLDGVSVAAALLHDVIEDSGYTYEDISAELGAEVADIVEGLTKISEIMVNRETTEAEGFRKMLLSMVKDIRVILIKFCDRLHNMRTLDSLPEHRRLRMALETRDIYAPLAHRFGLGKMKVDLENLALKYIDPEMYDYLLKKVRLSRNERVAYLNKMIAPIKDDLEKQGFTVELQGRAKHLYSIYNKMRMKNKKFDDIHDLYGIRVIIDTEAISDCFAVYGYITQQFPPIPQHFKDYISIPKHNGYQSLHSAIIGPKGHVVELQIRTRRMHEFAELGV
As to the kind of experiment: ITC.

Another assay addresses T8, RelCt^A286K (Chlorobaculum tepidum).
T8 chain: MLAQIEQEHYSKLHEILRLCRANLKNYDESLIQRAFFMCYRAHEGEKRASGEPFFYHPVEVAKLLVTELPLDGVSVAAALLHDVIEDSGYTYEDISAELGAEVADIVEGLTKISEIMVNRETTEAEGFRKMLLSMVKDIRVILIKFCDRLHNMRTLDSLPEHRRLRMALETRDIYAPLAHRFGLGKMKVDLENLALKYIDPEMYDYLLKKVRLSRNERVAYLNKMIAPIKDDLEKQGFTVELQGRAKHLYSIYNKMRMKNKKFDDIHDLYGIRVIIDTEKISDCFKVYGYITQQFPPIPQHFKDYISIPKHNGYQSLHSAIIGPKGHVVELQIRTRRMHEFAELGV
As to the kind of experiment: ITC.

The target in another assay is T9, RelCt^Y290A (Chlorobaculum tepidum).
T9 chain: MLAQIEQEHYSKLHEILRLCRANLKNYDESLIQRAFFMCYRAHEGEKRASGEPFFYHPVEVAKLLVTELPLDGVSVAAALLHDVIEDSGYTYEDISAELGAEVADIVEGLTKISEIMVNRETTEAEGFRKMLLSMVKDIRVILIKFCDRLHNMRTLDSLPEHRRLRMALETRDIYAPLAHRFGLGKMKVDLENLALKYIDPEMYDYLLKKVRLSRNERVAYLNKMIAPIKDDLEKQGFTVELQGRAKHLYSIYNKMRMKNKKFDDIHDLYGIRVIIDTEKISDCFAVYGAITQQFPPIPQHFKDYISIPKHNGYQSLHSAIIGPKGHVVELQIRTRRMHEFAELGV
As to the kind of experiment: ITC.

Read-outs that look alike come from different tables or passages of the source.

T4 sequence (P0AG20 whole entry): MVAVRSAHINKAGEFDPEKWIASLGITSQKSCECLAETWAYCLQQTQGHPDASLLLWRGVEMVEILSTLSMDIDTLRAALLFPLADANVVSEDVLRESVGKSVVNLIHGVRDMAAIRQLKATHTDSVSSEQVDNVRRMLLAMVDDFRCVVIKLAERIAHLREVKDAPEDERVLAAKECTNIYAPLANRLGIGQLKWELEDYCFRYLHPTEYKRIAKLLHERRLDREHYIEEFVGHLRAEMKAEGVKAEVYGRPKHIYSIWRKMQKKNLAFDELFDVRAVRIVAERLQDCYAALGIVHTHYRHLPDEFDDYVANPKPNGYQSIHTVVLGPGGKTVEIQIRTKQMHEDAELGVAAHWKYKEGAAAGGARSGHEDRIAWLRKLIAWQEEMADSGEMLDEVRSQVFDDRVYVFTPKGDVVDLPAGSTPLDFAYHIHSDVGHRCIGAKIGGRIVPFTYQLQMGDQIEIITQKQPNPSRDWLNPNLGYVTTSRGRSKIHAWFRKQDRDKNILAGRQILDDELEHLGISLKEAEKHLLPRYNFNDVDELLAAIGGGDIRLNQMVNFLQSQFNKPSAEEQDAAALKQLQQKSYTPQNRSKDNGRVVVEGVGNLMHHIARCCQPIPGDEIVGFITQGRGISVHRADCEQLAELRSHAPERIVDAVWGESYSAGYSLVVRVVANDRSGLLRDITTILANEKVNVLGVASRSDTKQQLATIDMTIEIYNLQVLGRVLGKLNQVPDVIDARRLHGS

As to `Nc1ncnc2c1ncn2[C@@H]1O[C@H](COP(=O)(O)CP(=O)(O)OP(=O)(O)O)[C@@H](O)[C@H]1O` [APCPP], the Kd (usually the equilibrium constant for the complex coming apart) on RelCt^NTD turned out to be 37900 nM.

B1: Nb585 (VHH)
VHH: QVQLQESGGGLVQAGGSLRLSCAASGFTFEDYTIGWFRQAPGKEREGVSLISNSDGFTSYADSVKGQFTISSENAKNTVYLQMDNLKPEDTAVYYCAATEVLAHLMWRPSNWGYWGQGTQVTV
notes: llama nanobody selected against C. tepidum Rel; Expressed from the pMESy4 plasmid; also called nanobody 585; source: E. coli WK6, periplasmic extraction, purified (Ni-NTA IMAC, SEC)
In assay [1], B1 showed a Kd of 21 nM. In addition, the “HD (ppGpp hydrolase) activity of RelCt in the presence of Nb585, HPLC” value in assay [2] is 2 fold. Moreover, the binding result in [3] is reported as “binds”. This molecule displayed a fold drop in affinity against unsubstituted RelCt in assay [4] of 28 fold.

B2: Nb96 (VHH)
VHH: QVQLQESGGGLVQAGGSLRLSCAASGSIFDIKVMAWYRQAPGKSRELVAVHASADDSTTYEKSVKGRFTISRDNAKNTVYLQMNSLKPEDTAIYYCNRIPNFTHWGQGTQVTVS
notes: llama nanobody selected against E. coli RelA; Expressed from the pMESy4 plasmid; also called nanobody 96; source: E. coli WK6, periplasmic extraction, purified (Ni-NTA IMAC, SEC)
As to B2, the Kd with full-length E. coli RelA was 80 nM.

B3: Nb898 (VHH)
VHH: QVQLQESGGGLVQAGGSLRLSCAASGSIESINAMAWYRQAPGKPRELVAVIAKSDGSTTYAVPVKGRFTISRDDAKNTVYLQMNSLKPEDTAIYYCNKIPNFTYWGQGTQVTVSS
notes: llama nanobody selected against C. tepidum Rel; Expressed from the pMESy4 plasmid; source: E. coli WK6, periplasmic extraction, purified (Ni-NTA IMAC, SEC)
With B3, the Kd was 186 nM in assay [1] and 190 nM in [5]. The “SYNTH activity (turnover of ppGpp synthesis) of RelCt in the presence of Nb898, HPLC” value in assay [2] was approximately 11 fold.

B4: Nb898 (VHH)
VHH: QVQLQESGGGLVQAGGSLRLSCAASGSIESINAMAWYRQAPGKPRELVAVIAKSDGSTTYAVPVKGRFTISRDDAKNTVYLQMNSLKPEDTAIYYCNKIPNFTYWGQGTQVTVSS
modifications: form not printed for this variant; NTD taken because the methods purify 'RelCtNTD and variants' (full length possible); limits from 9S6K entity
With B4, the Kd was found to be 200 nM with RelCt^D283A [6]; 201 nM in the assay with RelCt^D283A [7]; 2200 nM with RelCt^K280A; 12000 nM in the assay with RelCt^A286K; 1100 nM with RelCt^Y290A.

B5: Nb94 (VHH)
VHH: QVQLVESGGGMVQPGGSLRLSCAASGFTFSTYSMGWFRQAPGQEREFVAAISWSGDSAYYADSVKGRFTISRDNAKNTVYLQMNSLKFEDTAVYYCNADLDGLGYDYWGQGTQVTVS
notes: llama nanobody selected against E. coli RelA; Expressed from the pMESy4 plasmid; also called nanobody 94; source: E. coli WK6, periplasmic extraction, purified (Ni-NTA IMAC, SEC)
B5 showed a Kd in the assay with full-length E. coli RelA of 13 nM.

B6: Nb120 (VHH)
VHH: QVQLVESGGGLVQPGGSLRLSCAASGTIRSLNAMAWYRQAPGKERELAARISSGGTTTYADSVKGRFTISRDNAKNTLYLQMNSLKPEDTAVYYCKANRFSTYGYRDDIWGQGTQVTVS
notes: control nanobody selected against a different target; also called control Nb120; source: E. coli WK6, periplasmic extraction, purified (Ni-NTA IMAC, SEC)
For B6, the binding result in the assay with full-length E. coli RelA is given as “no binding”.
